Laboratory results from patent WO2022068891A1 (dated 2022).

Legend:
[1] = molecular target: T1, Biotinylated PD-1-huIgG1 Fc (Kactus Biosystems) (UniProt Q15116 25-167, limits assumed, biotinylated (site not given)); assay: neutralisation ELISA: PD-L1-huIgG1 Fc coated, antibody titrated against biotinylated PD-1-huIgG1 Fc
T1 construct: the whole entry is named

[2] = molecular target: T2, PD-1 Protein, Human, Recombinant (His Tag) (Beijing Yiqiao Shenzhou / Sino Biological) (human, UniProt Q15116 25-167); assay: binding ELISA: human PD-1 His tag protein coated at 0.5 ug/ml, antibody in two-fold dilutions from 10 ug/ml
T2 construct: Bought reagent; the whole entry is named
T2 sequence (Q15116 25-167 limits assumed): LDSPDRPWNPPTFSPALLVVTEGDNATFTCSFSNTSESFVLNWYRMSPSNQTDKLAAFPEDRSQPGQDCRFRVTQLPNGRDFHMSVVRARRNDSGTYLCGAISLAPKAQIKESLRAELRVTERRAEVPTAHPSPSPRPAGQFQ

T1 sequence (Q15116 25-167 limits assumed): as above

IC50 [1]: 3.6 µg/mL
EC50 [2]: 0.0172 µg/mL
B1: 6H6 hIgG1 form antibody (antibody, V domains shown)
VH: EVKLVESGGGLVKPGGSLKLSCAASGFTFSSYGMSWVRQTPEKRLEWVATISGGGRYTYYPDSVKGRFTISRDNAKNNLYLQMSSLRSEDTALYYCASIYDGYYFDYWGHGTTLTVSS
VL: DIVITQSPATLSVTPGDSVSLSCRASQSISNNLHWYQKKSHESPRLLIKYASQSISGIPSRFSGSGSGTDFTLSINSVETEDFGMYFCQQSNSWPLTFGAGTKLELK
notes: also called 6H6 antibody; 6H6 huIgG1 antibody
